{
  "source": "patent US12702697B2",
  "about": "“Compositions and methods for treatment of headache disorders and neuropathic pain” (Washington University, priority 2019, dated 2026)",
  "tested_on": "SNI-induced punctate and dynamic allodynia in mice",
  "experiment": "Mouse model of spared nerve injury (SNI): punctate (von Frey) and dynamic (brush) allodynia",
  "assay_type": "in vivo",
  "from_the_text": "Mouse model of SNI. Mice were anesthetized with 3-4% isoflurane in an induction chamber until losing the righting reflex. Anesthesia was maintained by 1.5-2% isoflurane through a nose cone. After skin and muscle incision to expose the right sciatic nerve in the thigh region, we tightly ligated two branches (sural and common peroneal nerves) with 7-0 silk suture (Braintree Scientific, Braintree, MA) and transected ~2 mm of the nerve distal to the ligature. The third branch of the sciatic nerve (tibial nerve) was left intact, and caution was taken not to stretch or contact the spared nerve. In sham mice the right sciatic nerve and its branches were exposed but were not touched. After the surgery, the overlying muscle and skin layers were closed separately with 6-0 vicryl suture and interrupted nylon suture for the skin incision, respectively.\nResponse to punctate mechanical stimuli on the hindpaw. Mice were habituated in individual clear plexiglass boxes (11×11×15 cm) for 1-2 hours. A series of calibrated von Frey filaments were used to apply mechanical stimuli to the medial plantar surface of the hindpaw (the tibial nerve territory). We used the up-down paradigm to determine the 50% withdrawal threshold.\nResponse to dynamic mechanical stimuli on the hindpaw. Mice were habituated in individual clear plexiglass boxes (11×11×15 cm) for 1-2 hours. The medial plantar surface of the hindpaw (tibial nerve territory) was stimulated by light stroking with a blunt paintbrush (5/0, Princeton Art & Brush Co., Princeton, NJ) from heel to toe at ~2 cm/second. The behavior was scored as described previously. Score 0 indicates no evoked movement or lifting the stimulated paw for less than 1 second. Score 1 indicates a sustained lifting (more than 2 seconds) of the stimulated paw toward the body or a single gentle flinching of the stimulated paw. Score 2 indicates a strong lateral lift of the stimulated paw above the level of the body or a startle-like jump. Score 3 indicates multiple flinching or licking of the stimulated paw. Each paw was tested 3 times, with minimal interval of 3 minutes. The scores of 3 tests were averaged to indicate the response to dynamic mechanical stimuli.\nLd-IL2 treatment. Recombinant mouse IL2 (carrier-free, Biolegend, San Diego, CA) was freshly diluted from the stock (0.5-1 mg/ml aliquots at −80° C.) every day. Each mouse received daily intraperitoneal (i.p.) injection of 1 μg IL2 in 100 μl saline at various durations. The control mice received daily i.p. injections of 100 μl saline. Note that on the days that the mouse behaviors were tested, IL2 was always injected after completing the behavioral tests. […]",
  "data": [
    {"molecule": "ld-IL2: Recombinant mouse IL2 (carrier-free; Biolegend), given as daily low-dose i.p. injection (protein, UniProt P04351 21-169, looked up) Interleukin-2: APTSSSTSSSTAEAQQQQQQQQQQQQHLEQLLMDLQELLSRMENYRNLKLPRMLTFKFYLPKQATELKDLQCLEDELGPLRHVLDLTQSKSFQLEDAENFISNIRVTVVKLKGSDNTFECQFDDESATVVDFLRRWIAFCQSIISTSPQ", "values": [
      {"measurement": "days of ld-IL2 treatment after which the mechanical threshold started to reverse", "setting": "3-week ld-IL2 started 7 days post-SNI, ipsilateral paw", "result": 3, "unit": "days"},
      {"measurement": "basal punctate and dynamic mechanical sensitivity", "setting": "5 days of ld-IL2 injections before SNI, female Swiss Webster", "result": "not altered"},
      {"measurement": "mechanical threshold of SNI+IL2 versus sham+IL2 group", "setting": "after 7 days of IL2 treatment (day 14-28)", "result": "not different"},
      {"measurement": "dynamic allodynia", "setting": "after 7 days of IL2 treatment (day 15-29)", "result": "completely reversed"},
      {"measurement": "integrated AOC of withdrawal threshold between day 10 and 28 post-SNI versus SNI+saline", "setting": "delayed ld-IL2", "result": "significantly lower"},
      {"measurement": "integrated AOC of dynamic allodynia score versus SNI+saline", "setting": "delayed ld-IL2, between day 10 and 28 post-SNI", "result": "significantly lower"},
      {"measurement": "responses to brush stimuli of the contralateral paw and of sham mice", "setting": "ld-IL2", "result": "did not change"},
      {"measurement": "SNI-caused reduction of the withdrawal threshold", "setting": "ld-IL2 1 μg/mouse/day i.p. from 5 days before to 21 days post-SNI (saline: threshold about 20% of baseline)", "result": 50, "unit": "%"},
      {"measurement": "mechanical threshold of the contralateral (left) paw", "setting": "ld-IL2, SNI mice", "result": "did not change"},
      {"measurement": "development of hyper-sensitivity to brush stimuli (dynamic allodynia)", "setting": "ld-IL2 pretreatment", "result": "prevents the development"},
      {"measurement": "magnitude of punctate allodynia (AOC day 0 to day 22 post-SNI)", "setting": "ld-IL2 pretreatment", "result": "significantly attenuated"}
    ]}
  ]
}
